# Reference: patent publication US20110262464A1, “Compositions, Kits, and Methods for the Diagnosis, Prognosis, and Monitoring of Cancer Using GOLPH3” (DANAFARBER CANCER INSTITUTE, INC., priority 2008, published 2011)
# System: GOLPH3 localization at the Golgi in A549 cells
# Test: Immunofluorescence of GOLPH3 localization
# Format: cell-based, human
# Conditions: A549 treated with EGF at specific time points
# Protocol: For immunofluorescence studies, cells were cultured on cover slips, followed by fixation for 15 min at RT in 4% paraformaldehyde in PBS, permeabilization for 10 min RT in 0.1% Triton X-100/PBS and blocking 1 hr RT in 10% goat or donkey serum/PBS. Slides were incubated 1 hr RT with the following antibodies: mouse anti-HA (1:100, Cell Signaling); rabbit anti-TGN46 (1:500; Abcam), goat anti-VPS35 (1:200; Abcam) and mouse anti-GOLPH3 (1:300). Slides were stained for 1 hour RT with the corresponding Alexa Flour secondary antibodies (Invitrogen). Cover slips were stained with DAPI (Sigma) and mounted with mounting medium. Microscopic images were obtained with a Nikon inverted Ti microscope equipped with Yokogawa spinning disk confocal/TIRF system and a Hamamatsu Orca ER firewire digital CCD camera using constant exposure times for each channel in individual experiments. Images were compiled and false-colored with Adobe Photoshop using identical settings for each color. Magnification is 100× unless otherwise indicated.
# In order to determine whether or not ARF4 might regulate GOLPH3 localization at the Golgi apparatus, ARF4 siRNA were transfected into A549 cells.
molecule,measurement,value
"EGF: epidermal growth factor (Invitrogen), 100 ng/ml for stimulation assays (protein, UniProt P01133 23-1207, looked up, Pro-epidermal growth factor, epidermal growth factor (Invitrogen), 100 ng/ml for stimulation assays) Pro-epidermal growth factor: PQHWSCPEGTLAGNGNSTCVGPAPFLIFSHGNSIFRIDTEGTNYEQLVVDAGVSVIMDFHYNEKRIYWVDLERQLLQRVFLNGSRQERVCNIEKNVSGMAINWINEEVIWSNQQEGIITVTDMKGNNSHILLSALKYPANVAVDPVERFIFWSSEVAGSLYRADLDGVGVKALLETSEKITAVSLDVLDKRLFWIQYNREGSNSLICSCDYDGGSVHISKHPTQHNLFAMSLFGDRIFYSTWKMKTIWIANKHTGKDMVRINLHSSFVPLGELKVVHPLAQPKAEDDTWEPEQKLCKLRKGNCSSTVCGQDLQSHLCMCAEGYALSRDRKYCEDVNECAFWNHGCTLGCKNTPGSYYCTCPVGFVLLPDGKRCHQLVSCPRNVSECSHDCVLTSEGPLCFCPEGSVLERDGKTCSGCSSPDNGGCSQLCVPLSPVSWECDCFPGYDLQLDEKSCAASGPQPFLLFANSQDIRHMHFDGTDYGTLLSQQMGMVYALDHDPVENKIYFAHTALKWIERANMDGSQRERLIEEGVDVPEGLAVDWIGRRFYWTDRGKSLIGRSDLNGKRSKIITKENISQPRGIAVHPMAKRLFWTDTGINPRIESSSLQGLGRLVIASSDLIWPSGITIDFLTDKLYWCDAKQSVIEMANLDGSKRRRLTQNDVGHPFAVAVFEDYVWFSDWAMPSVMRVNKRTGKDRVRLQGSMLKPSSLVVVHPLAKPGADPCLYQNGGCEHICKKRLGTAWCSCREGFMKASDGKTCLALDGHQLLAGGEVDLKNQVTPLDILSKTRVSEDNITESQHMLVAEIMVSDQDDCAPVGCSMYARCISEGEDATCQCLKGFAGDGKLCSDIDECEMGVPVCPPASSKCINTEGGYVCRCSEGYQGDGIHCLDIDECQLGEHSCGENASCTNTEGGYTCMCAGRLSEPGLICPDSTPPPHLREDDHHYSVRNSDSECPLSHDGYCLHDGVCMYIEALDKYACNCVVGYIGERCQYRDLKWWELRHAGHGQQQKVIVVAVCVVVLVMLLLLSLWGAHYYRTQKLLSKNPKNPYEESSRDVRSRRPADTEDGMSSCPQPWFVVIKEHQDLKNGGQPVAGEDGQAADGSMQPTSWRQEPQLCGMGTEQGCWIPVSSDKGSCPQVMERSFHMPSYGTQTLEGGVEKPHSLLSANPLWQQRALDPPHQMELTQ",GOLPH3 localization at the Golgi,redistribution of GOLPH3 from the Golgi
